In article PMC60004 one finds Kd, koff and kon data, which are given here for one substance.

In general, Kd refers to the equilibrium constant for the complex coming apart. In general, koff refers to the first-order rate constant of dissociation. A high value points to a short-lived complex. In general, kon refers to the rate constant with which the complex forms.

Test [1] concerns the target Bombyx mori cadherin-like receptor BtR175, native, 175 kDa (Bombyx mori (endogenous in larval midgut)). As to the kind of experiment: SPR. Background: In SPR one partner is held on a chip, and binding of the other changes the refractive index at the surface.
The target in test [2] is Bombyx mori aminopeptidase N, native, 115-kDa (115-120 kDa) Cry1Aa-binding receptor (Bombyx mori (endogenous in larval midgut)). As to the kind of experiment: SPR.

In the case of “Hybrid toxin 4109 (domains I and II of Cry1Aa, domain III of Cry1Ac)”, in test [1], the Kd was 2.6 nM, the koff was 3.34e-05 s⁻¹ and the on-rate constant (kon) came to 13000 M⁻¹ s⁻¹. In test [2], the Kd is 78 nM, the koff was found to be 0.0015 s⁻¹ and the kon stood at 19000 M⁻¹ s⁻¹.
